Changes are numbered by the printed parent chain.

The text below walks through data of US20250019427A1 (BYOMASS, published 2025).

First the molecules themselves.
T1: GDF15 (Homo sapiens (Human), UniProt Q99988 30-308)
T1 sequence: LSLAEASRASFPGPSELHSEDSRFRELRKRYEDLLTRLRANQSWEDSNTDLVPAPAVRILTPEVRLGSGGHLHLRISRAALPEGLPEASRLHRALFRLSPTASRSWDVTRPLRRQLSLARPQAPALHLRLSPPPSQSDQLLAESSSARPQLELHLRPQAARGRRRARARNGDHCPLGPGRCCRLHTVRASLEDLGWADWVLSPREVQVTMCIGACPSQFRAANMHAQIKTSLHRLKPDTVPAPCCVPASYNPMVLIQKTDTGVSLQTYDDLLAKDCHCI

T2: Cyno GDF15 Fc (cyno, UniProt G7PWZ3 193-308)
T2 construct: also called cyno GDF15-Fc fusion
T2 sequence: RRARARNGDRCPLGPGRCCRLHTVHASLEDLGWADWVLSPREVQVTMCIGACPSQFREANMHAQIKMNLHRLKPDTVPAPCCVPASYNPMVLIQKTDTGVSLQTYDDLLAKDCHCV

T3: Mouse GDF15 Fc (mouse, UniProt Q9Z0J7 189-303, limits assumed)
T3 construct: also called mouse GDF15Fc fusion
T3 sequence (looked up): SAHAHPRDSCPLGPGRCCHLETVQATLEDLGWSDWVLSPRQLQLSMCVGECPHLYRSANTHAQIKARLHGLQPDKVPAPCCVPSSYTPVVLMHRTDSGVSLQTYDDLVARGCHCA

T4: GDNF (UniProt P39905 78-211)
T4 sequence (looked up): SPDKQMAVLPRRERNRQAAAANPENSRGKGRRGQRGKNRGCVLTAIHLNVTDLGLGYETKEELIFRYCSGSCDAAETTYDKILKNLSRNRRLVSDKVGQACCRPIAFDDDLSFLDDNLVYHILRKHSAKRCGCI

T5: GDF10 (UniProt P55107 369-478)
T5 sequence (looked up): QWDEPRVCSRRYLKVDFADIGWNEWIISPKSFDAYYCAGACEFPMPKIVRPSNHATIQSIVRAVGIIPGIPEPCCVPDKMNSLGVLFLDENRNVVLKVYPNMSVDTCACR

T6: Human Activin A Fc (human, UniProt P08476 311-426)
T6 sequence (looked up): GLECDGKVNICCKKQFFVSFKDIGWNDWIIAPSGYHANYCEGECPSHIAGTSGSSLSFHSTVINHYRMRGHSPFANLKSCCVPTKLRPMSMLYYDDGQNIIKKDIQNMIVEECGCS

T7: Human Activin B (human, UniProt P09529 293-407)
T7 construct: Also used for the Activin B ligand of the ActRIIB/SMAD reporter assay, where the species is not restated
T7 sequence (looked up): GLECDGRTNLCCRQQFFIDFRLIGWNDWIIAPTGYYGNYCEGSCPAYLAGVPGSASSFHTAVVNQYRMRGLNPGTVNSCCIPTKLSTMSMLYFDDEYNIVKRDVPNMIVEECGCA

T8: Human BMP9 (human, UniProt Q9UK05 320-429)
T8 sequence (looked up): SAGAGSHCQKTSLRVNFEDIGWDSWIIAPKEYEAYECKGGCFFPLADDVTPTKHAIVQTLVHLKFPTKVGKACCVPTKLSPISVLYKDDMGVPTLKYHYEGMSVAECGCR

T9: Human BMP10 (human, UniProt O95393 317-424)
T9 sequence (looked up): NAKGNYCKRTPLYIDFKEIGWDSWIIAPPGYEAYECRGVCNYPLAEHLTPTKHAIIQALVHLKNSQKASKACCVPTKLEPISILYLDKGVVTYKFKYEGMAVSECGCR

B1: Clone H IgG (antibody, V domains shown)
VH: QVQLVQSGAEVKKPGSSVKVSCKASGGTFSSYYISWVRQAPGQGLEWMGGIAPISGTASYAQKFQGRVTITADESTSTAYMELSSLRSEDTAVYYCARGLAYDGYFDLWGRGTLVTVSS
VL: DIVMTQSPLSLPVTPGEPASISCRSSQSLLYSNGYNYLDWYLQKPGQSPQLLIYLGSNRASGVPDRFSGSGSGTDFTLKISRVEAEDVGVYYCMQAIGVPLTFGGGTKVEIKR
notes: IgG format
B2: Clone J IgG (antibody, V domains shown)
VH: QVQLVQSGAEVKKPGASVKVSCKASGYTFTSYGINWVRQAPGQGLEWMGWIDAYSGSTNYAQKLQGRVTMTTDTSTSTAYMELRSLRSDDTAVYYCARGPGQYADVDVWGQGTMVTVSS
VL: DIQMTQSPSSVSASVGDRVTITCRASQGISSWLAWYQQKPGKAPKLLIYAASSLQSGVPSRFSGSGSGTDFTLTISSLQPEDFATYYCQQANSFPITFGGGTKVEIKR
notes: IgG format
B3: Clone K IgG (antibody, V domains shown)
VH: QVQLVQSGAEVKKPGASVKVSCKASGYTFTNEGISWVRQAPGQGLEWMGWISAYTADTFYAQKLQGRVTMTTDTSTSTAYMELRSLRSDDTAVYYCARTRHDTSGLRFDYWGQGTLVTVSS
VL: B2 VL with S30D, A91V, N92H
notes: IgG format
B4: Clone L IgG (antibody, V domains shown)
VH: B3 VH with T30A, N31S, E32Y, G33D, S35I, Y54L, T55S, A56G, F59V, L106I
VL: B2 VL with S30D, A91V, N92H
notes: IgG format
B5: Clone P IgG (antibody, V domains shown)
VH: QVQLVQSGAEVKKPGATVKVSCKASGYTFDSYGIHWVRQAPGQGLEWMGWITAYSGDTVYAQKLQGRVTMTTDTSTSTAYMELRSLRSDDTAVYYCARESGQTSSALGPWGQGTLVTVSS
VL: B2 VL with S31R, A91G, N92A, I96L
notes: IgG format
B6: Clone L Fab (Fab, V domains shown)
VH: B3 VH with T30A, N31S, E32Y, G33D, S35I, Y54L, T55S, A56G, F59V, L106I
VL: DIQMTQSPSSVSASVGDRVTITCRASQGIDSWLAWYQQKPGKAPKLLIYAASSLQSGVPSRFSGSGSGTDFTLTISSLQPEDFATYYCQQVHSFPITFGGGTKVEIK
notes: Fab format
B7: Clone M Fab (Fab, V domains shown)
VH: QVQLVQSGAEVKKPGASVKVSCKASGYTFDSYGINWVRQAPGQGLEWMGWISAYSGDTAYAQELQGRVTMTTDTSTSTAYMELRSLRSDDTAVYYCVRDTQYGGSPYWGQGTLVTVSS
VL: EIVMTQSPATLSVSPGERATLSCRASQSVSSNLAWYQQKPGQAPRLLIYGASTRATGIPARFSGSGSGTEFTLTISSLQSEDFAVYYCQQYNNWPITFGGGTKVEIK
notes: Fab format
B8: Clone S IgG (antibody, V domains shown)
VH: B2 VH with D52T, S57D
VL: B2 VL with M4L, S31P
notes: IgG format
B9: Clone T IgG (antibody, V domains shown)
VH: B2 VH with D52T, S57D
VL: B2 VL with N92S, S93Q
notes: IgG format

The target of one assay is T1, GDF15. Nature of the assay: cell-based or functional assay.
As for B1, the “GDF15 - GFRAL RET pERK IC50 (pM)” value amounted to 254 pM and the “GDF15 - GFRAL-RET Luciferase IC50 (pM)” value amounted to 200 pM.
Turning to B2, the “GDF15 - GFRAL RET pERK IC50 (pM)” value was determined as 30.3 pM and the “GDF15 - GFRAL-RET Luciferase IC50 (pM)” value was 110 pM.
On to B3, for which the “GDF15 - GFRAL RET pERK IC50 (pM)” value worked out at 187 pM and the “GDF15 - GFRAL-RET Luciferase IC50 (pM)” value was 813 pM.
Consider B4, for which the “GDF15 - GFRAL RET pERK IC50 (pM)” value amounted to 13.5 pM and the “GDF15 - GFRAL-RET Luciferase IC50 (pM)” value was determined as 274 pM.
Consider B5, for which the “GDF15 - GFRAL RET pERK IC50 (pM)” value amounted to 35.6 pM.
As to B6, the “GDF15 GFRAL RET pERK Fab IC50 pM” value is 2.1 µM.
Take B7: the “GDF15 GFRAL RET pERK Fab IC50 pM” value was 1370 pM.

Another assay has as its target T2, Cyno GDF15 Fc. Nature of the assay: Octet BLI, Fab monovalent.
The molecule B6 had a Kd of 1.56 nM.
On the same count and under the same terms, then B7, with 1.91 nM.

In the next assay the target is T3, Mouse GDF15 Fc. The assay can be described thus: Octet BLI, Fab monovalent.
B6 returned a Kd of 229 nM.
Still for that read-out and setting: then B7, with 31.4 nM.

Another assay addresses T4, GDNF. The assay can be described thus: Octet BLI, IgG on tip, avid.
With B1, the binding result is “no binding (tested: 100 nM)”.
In turn, B3 yielded a Kd of 333 nM.
B4: binding was characterised by a dissociation constant (Kd) of 229 nM.
Take B8: the binding result was “no binding (tested: 100 nM)”.
Turning to B9, the binding result is recorded as “no binding (tested: 100 nM)”.

For a further assay, the target named is GDF8 (UniProt O14793 267-375). Nature of the assay: Octet BLI, IgG on tip, avid.
Regarding B1, the binding result was “no binding (tested: 100 nM)”.
Same read-out and setting: for B2 the value was “no binding (tested: 100 nM)”; for B3, “no binding (tested: 100 nM)”; for B4, “no binding (tested: 100 nM)”.
Same read-out and setting: for B5 the value was “no binding (tested: 100 nM)”.
With B8, the binding result is “no binding (tested: 100 nM)”.
The same measure, in the same setting: then B9, with “no binding (tested: 100 nM)”.

The target in another assay is T5, GDF10. The assay can be described thus: Octet BLI, IgG on tip, avid.
Take B1: the binding result is given as “no binding (tested: 100 nM)”.
On the same count and under the same terms, for B2 the value was “no binding (tested: 100 nM)”; for B3, “no binding (tested: 100 nM)”.
On to B4, for which the binding result is “no binding (tested: 100 nM)”.
Consider B5, for which the binding result was “no binding (tested: 100 nM)”.
With B8, the binding result was “no binding (tested: 100 nM)”.
For B9, the binding result was “no binding (tested: 100 nM)”.

The target in another assay is T10, GDF11 (UniProt O95390 299-407).
T10 construct: Also the GDF-11 ligand of the ActRIIB/SMAD reporter assay
T10 sequence (O95390 299-407 limits assumed): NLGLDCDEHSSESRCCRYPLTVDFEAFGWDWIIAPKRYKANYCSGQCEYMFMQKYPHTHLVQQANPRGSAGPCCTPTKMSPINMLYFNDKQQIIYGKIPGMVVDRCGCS
Nature of the assay: Octet BLI, IgG on tip, avid.
For the molecule B1, the binding result is recorded as “no binding (tested: 100 nM)”.
For the molecule B2, the binding result was “no binding (tested: 100 nM)”.
Take B3: the binding result is “no binding (tested: 100 nM)”.
B4: the binding result was “no binding (tested: 100 nM)”.
On the same count and under the same terms, for B5 the value was “no binding (tested: 100 nM)”; for B8, “no binding (tested: 100 nM)”.
For the molecule B9, the binding result is “no binding (tested: 100 nM)”.

A further assay addresses T6, Human Activin A Fc. Nature of the assay: Octet BLI, IgG on tip, avid.
Consider B1, for which the binding result is “no binding (tested: 100 nM)”.
In the case of B2, the binding result was “no binding (tested: 100 nM)”.
Regarding B3, the binding result is “no binding (tested: 100 nM)”.
Take B4: the binding result is “no binding (tested: 100 nM)”.
Still for that read-out and setting: for B5 the value was “no binding (tested: 100 nM)”.
As to B8, the binding result was “no binding (tested: 100 nM)”.
On the same count and under the same terms, for B9 the value was “no binding (tested: 100 nM)”.

For the next assay, the target named is T7, Human Activin B. The assay can be described thus: Octet BLI, IgG on tip, avid.
Regarding B1, the binding result is recorded as “no binding (tested: 100 nM)”.
In the case of B2, the binding result is given as “no binding (tested: 100 nM)”.
Consider B3, for which the binding result is listed as “no binding (tested: 100 nM)”.
The same measure, in the same setting: for B4 the value was “no binding (tested: 100 nM)”; for B5, “no binding (tested: 100 nM)”; for B8, “no binding (tested: 100 nM)”.
The same measure, in the same setting: for B9 the value was “no binding (tested: 100 nM)”.

The next assay deals with T8, Human BMP9. Nature of the assay: Octet BLI, IgG on tip, avid.
On to B1, for which the binding result is “no binding (tested: 100 nM)”.
Take B2: the binding result is “no binding (tested: 100 nM)”.
For the molecule B3, the binding result was “no binding (tested: 100 nM)”.
Still for that read-out and setting: for B4 the value was “no binding (tested: 100 nM)”.
Still for that read-out and setting: then B5, with “no binding (tested: 100 nM)”.
With B8, the binding result was “no binding (tested: 100 nM)”.
On the same count and under the same terms, for B9 the value was “no binding (tested: 100 nM)”.

In the next assay the target is T9, Human BMP10. The assay can be described thus: Octet BLI, IgG on tip, avid.
Take B1: the binding result is recorded as “no binding (tested: 100 nM)”.
In the case of B2, the binding result was “no binding (tested: 100 nM)”.
Still for that read-out and setting: for B3 the value was “no binding (tested: 100 nM)”; for B4, “no binding (tested: 100 nM)”; for B5, “no binding (tested: 100 nM)”.
As to B8, the binding result is listed as “no binding (tested: 100 nM)”.
For the molecule B9, the binding result is “no binding (tested: 100 nM)”.
